Measured values taken from the supplement of paper PMC10065799, “High-throughput profiling of sequence recognition by tyrosine kinases and SH2 domains using bacterial peptide display” (eLife, 2023).

Tests used:
Grb2 SH2 = Grb2 SH2 (UniProt P62993); experiment: SH2 binding enrichment of the phosphorylated peptide, bacterial display (enrichment ratio); higher = better substrate or ligand; peptides without Tyr show the background
SHP2-C SH2 = experiment: as above
c-Src SH2 = experiment: as above
FGFR3 = FGFR3 (UniProt P22607); experiment: phosphorylation enrichment, bacterial display (enrichment ratio); higher = better substrate or ligand; peptides without Tyr show the background
Chain of FGFR3 (P22607 whole entry, looked up): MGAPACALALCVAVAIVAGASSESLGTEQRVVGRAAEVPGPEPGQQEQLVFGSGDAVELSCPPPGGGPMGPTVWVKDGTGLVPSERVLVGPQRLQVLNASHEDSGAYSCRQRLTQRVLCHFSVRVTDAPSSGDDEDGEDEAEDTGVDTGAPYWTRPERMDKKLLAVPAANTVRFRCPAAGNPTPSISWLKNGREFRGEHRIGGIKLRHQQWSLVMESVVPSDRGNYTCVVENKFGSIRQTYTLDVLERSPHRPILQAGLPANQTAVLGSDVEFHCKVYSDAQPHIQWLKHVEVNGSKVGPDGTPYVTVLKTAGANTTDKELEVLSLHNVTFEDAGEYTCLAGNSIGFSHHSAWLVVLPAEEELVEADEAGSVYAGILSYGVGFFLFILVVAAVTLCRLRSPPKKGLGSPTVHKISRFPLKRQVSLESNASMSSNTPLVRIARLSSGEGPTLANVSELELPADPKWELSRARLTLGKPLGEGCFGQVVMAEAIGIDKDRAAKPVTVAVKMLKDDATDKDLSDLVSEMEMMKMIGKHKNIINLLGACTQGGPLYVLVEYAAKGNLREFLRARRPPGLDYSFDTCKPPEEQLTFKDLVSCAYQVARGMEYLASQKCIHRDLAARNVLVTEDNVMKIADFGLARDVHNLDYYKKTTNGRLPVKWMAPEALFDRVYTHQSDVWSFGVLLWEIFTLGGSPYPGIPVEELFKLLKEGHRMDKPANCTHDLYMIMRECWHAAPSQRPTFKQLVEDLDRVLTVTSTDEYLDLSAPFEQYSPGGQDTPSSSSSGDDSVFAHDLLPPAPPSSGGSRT

Jak2 = Jak2 (UniProt O60674); experiment: as above
Chain of Jak2 (O60674 whole entry, looked up): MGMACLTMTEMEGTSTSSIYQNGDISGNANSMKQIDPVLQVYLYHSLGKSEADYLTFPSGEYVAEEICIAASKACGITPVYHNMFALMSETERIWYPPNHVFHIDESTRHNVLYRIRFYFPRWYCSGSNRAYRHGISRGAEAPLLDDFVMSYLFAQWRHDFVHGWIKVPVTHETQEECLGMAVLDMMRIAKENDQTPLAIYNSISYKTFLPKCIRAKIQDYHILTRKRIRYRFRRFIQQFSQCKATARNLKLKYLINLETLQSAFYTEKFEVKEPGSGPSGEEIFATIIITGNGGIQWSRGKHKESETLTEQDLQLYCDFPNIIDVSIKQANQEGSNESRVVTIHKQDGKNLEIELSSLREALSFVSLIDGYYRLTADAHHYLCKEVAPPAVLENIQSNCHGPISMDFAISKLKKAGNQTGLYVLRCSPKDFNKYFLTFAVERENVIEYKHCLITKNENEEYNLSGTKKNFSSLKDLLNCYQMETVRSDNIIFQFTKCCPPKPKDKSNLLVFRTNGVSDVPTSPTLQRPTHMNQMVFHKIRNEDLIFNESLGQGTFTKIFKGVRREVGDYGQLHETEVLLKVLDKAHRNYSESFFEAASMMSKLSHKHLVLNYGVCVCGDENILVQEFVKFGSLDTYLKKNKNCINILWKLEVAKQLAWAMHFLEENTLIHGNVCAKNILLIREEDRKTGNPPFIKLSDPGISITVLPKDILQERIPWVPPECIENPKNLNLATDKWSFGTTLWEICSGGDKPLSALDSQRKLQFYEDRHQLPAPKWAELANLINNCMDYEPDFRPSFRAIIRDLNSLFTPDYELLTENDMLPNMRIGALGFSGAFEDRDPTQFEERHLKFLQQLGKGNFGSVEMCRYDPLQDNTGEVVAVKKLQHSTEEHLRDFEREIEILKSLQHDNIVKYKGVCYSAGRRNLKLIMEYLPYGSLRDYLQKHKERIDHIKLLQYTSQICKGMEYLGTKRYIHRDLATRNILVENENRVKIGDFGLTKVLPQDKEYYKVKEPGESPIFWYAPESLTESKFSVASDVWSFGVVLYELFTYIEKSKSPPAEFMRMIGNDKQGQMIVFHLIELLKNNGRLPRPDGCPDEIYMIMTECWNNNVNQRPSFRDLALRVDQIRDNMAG

AncSZ = experiment: as above
MERTK = MERTK (UniProt Q12866); experiment: as above
Chain of MERTK (Q12866 whole entry, looked up): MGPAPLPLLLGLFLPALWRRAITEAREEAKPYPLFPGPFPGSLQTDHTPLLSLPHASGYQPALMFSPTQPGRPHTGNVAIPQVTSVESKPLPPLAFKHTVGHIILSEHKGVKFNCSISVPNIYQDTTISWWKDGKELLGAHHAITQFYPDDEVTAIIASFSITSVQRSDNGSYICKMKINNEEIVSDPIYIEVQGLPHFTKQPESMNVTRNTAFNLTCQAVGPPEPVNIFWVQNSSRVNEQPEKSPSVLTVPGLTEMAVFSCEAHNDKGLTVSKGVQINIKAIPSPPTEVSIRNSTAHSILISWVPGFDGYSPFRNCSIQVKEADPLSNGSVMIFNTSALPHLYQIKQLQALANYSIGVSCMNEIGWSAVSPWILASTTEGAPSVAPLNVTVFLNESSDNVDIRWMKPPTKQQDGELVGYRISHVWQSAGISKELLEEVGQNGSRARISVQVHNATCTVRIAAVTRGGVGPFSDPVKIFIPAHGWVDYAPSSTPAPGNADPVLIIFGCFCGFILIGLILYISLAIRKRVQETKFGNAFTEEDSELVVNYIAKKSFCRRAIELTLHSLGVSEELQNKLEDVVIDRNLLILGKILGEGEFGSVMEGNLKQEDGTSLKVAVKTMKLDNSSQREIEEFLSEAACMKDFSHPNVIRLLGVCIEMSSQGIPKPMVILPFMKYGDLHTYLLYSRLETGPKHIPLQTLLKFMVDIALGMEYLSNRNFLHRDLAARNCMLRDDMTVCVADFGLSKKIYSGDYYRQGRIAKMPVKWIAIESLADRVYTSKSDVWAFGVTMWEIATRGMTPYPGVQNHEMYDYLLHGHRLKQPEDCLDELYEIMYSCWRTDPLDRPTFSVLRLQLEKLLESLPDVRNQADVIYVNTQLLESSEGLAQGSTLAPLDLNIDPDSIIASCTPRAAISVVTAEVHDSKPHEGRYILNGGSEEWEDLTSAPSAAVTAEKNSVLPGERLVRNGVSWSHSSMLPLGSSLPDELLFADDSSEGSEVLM

FGFR1 = FGFR1 (UniProt P11362); experiment: as above
Fyn = Fyn (UniProt P06241); experiment: as above
Chain of Fyn (P06241 whole entry, looked up): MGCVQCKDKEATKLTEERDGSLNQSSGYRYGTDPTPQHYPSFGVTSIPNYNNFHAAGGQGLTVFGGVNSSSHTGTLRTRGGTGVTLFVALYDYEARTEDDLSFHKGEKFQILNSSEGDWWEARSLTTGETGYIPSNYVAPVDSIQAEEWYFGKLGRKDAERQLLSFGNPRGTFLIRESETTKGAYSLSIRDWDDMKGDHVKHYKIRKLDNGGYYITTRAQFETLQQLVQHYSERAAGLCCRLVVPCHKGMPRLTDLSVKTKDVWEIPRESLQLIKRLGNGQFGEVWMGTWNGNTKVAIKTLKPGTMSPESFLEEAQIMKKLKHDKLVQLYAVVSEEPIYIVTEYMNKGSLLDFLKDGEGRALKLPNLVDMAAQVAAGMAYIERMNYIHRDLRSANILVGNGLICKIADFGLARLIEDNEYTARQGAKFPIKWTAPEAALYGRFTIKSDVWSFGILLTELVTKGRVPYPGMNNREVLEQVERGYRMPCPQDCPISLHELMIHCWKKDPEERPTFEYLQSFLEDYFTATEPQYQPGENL

Fer (mouse) = experiment: as above
EPHB1 = EPHB1 (UniProt P54762); experiment: as above
Chain of EPHB1 (P54762 whole entry, looked up): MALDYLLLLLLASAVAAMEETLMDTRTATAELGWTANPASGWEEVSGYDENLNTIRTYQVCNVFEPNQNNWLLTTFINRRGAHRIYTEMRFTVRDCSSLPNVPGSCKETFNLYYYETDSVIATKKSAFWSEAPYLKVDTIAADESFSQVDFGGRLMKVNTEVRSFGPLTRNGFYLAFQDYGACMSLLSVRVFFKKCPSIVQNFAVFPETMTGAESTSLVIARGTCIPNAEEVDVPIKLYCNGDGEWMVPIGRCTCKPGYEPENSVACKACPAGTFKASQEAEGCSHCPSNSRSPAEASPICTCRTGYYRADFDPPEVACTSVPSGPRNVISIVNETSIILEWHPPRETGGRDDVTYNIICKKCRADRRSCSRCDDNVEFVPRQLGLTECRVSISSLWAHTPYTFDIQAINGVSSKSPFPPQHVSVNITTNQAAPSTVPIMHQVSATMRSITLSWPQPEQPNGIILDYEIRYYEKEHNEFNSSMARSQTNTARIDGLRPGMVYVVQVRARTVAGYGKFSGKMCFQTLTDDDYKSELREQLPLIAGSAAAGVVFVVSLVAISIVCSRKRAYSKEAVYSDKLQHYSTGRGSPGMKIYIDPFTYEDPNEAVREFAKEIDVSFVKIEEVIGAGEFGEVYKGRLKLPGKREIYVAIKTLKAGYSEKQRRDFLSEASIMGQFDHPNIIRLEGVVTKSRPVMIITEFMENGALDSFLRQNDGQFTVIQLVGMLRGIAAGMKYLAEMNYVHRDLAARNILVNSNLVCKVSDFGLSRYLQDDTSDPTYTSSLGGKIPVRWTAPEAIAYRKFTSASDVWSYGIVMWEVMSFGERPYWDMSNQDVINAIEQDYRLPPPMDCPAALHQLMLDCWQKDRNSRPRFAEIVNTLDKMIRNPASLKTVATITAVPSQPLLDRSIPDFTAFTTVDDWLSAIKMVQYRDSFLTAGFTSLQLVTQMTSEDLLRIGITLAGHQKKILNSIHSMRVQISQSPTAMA

c-Abl (mouse) = experiment: as above
EPHB2 = EPHB2 (UniProt P29323); experiment: as above
c-Src = experiment: as above
Fes = Fes (UniProt P07332); experiment: as above
Hck = Hck (UniProt P08631); experiment: as above
Chain of Hck (P08631 whole entry, looked up, the tested form may be a part): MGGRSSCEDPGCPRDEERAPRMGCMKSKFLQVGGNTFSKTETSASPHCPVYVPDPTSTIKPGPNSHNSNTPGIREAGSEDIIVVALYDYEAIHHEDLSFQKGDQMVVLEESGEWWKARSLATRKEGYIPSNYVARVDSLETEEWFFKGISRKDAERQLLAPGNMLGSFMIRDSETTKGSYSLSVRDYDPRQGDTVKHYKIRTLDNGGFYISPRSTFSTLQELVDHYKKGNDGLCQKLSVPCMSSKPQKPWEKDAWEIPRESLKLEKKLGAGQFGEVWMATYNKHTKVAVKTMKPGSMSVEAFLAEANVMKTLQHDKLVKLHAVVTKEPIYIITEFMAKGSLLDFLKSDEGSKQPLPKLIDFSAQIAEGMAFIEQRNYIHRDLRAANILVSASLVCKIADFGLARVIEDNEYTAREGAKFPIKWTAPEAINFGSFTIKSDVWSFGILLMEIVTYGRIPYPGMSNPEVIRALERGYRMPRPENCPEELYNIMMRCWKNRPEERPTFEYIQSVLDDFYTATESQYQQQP
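For SH2 binding enrichment of the phosphorylated peptide, bacterial display in this document: peptide library displayed on the E. coli surface as eCPX fusions, selected cells deep-sequenced, score is each peptide's frequency after selection divided by its frequency in the input.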
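For phosphorylation enrichment, bacterial display in this document: 11-residue human phosphosite peptides and single-mutation variants displayed on the E. coli surface, counted by deep sequencing, each peptide's frequency after selection divided by its frequency in the unselected input library; frequency after pTyr selection over input frequency; kinase dosed for 20-30% of maximal phosphorylation in three min.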

| Sequence | SH2 binding enrichment (Grb2 SH2) | SH2 binding enrichment (SHP2-C SH2) | SH2 binding enrichment (c-Src SH2) | phosphorylation enrichment (FGFR3) | phosphorylation enrichment (Jak2) | phosphorylation enrichment (AncSZ) | phosphorylation enrichment (MERTK) | phosphorylation enrichment (FGFR1) | phosphorylation enrichment (Fyn) | phosphorylation enrichment (Fer (mouse)) | phosphorylation enrichment (EPHB1) | phosphorylation enrichment (c-Abl (mouse)) | phosphorylation enrichment (EPHB2) | phosphorylation enrichment (c-Src) | phosphorylation enrichment (Fes) | phosphorylation enrichment (Hck) |
| --- | --- | --- | --- | --- | --- | --- | --- | --- | --- | --- | --- | --- | --- | --- | --- | --- |
| FAFQLYDLDRD [CHP2_Y123_YF] | 0.991 | 0.885 | 0.923 | 0.68 | 1.13 | 1.06 | 0.694 | 0.467 | 1.2 | 0.631 | 1.23 | 0.823 | 0.673 | 2.17 | 1.37 | 1.03 |
| FDEFRYRSFIK [CFTR_Y517_V520F_YF] | 0.702 | 0.41 | 0.414 | 0.526 | 0.497 | 0.775 | 0.422 | 0.498 | 0.467 | 0.556 | 0.417 | 0.454 | 0.39 | 0.419 | 0.764 | 0.511 |
| FHIDHYLGKEM [G6PD_Y202_R198H_YF] | 1.33 | 0.787 | 0.778 | 0.481 | 0.467 | 0.556 | 0.331 | 0.53 | 0.39 | 0.342 | 0.438 | 0.415 | 0.553 | 0.334 | 0.688 | 0.503 |
| FIPSNYVAEDR [FRK_Y104_YF] | 0.82 | 0.868 | 0.579 | 0.502 | 0.564 | 0.74 | 0.399 | 0.412 | 0.394 | 0.427 | 0.386 | 0.431 | 0.443 | 0.42 | 0.657 | 0.411 |
| FKELVYETVRV [FSHB_Y76] | 0.751 | 0.961 | 0.77 | 1.57 | 0.894 | 2.11 | 9.94 | 3.22 | 11.2 | 18.5 | 10.2 | 18 | 9.8 | 8.98 | 6.92 | 12.4 |
| FLAVGYHKPFI [IDS_Y225_H229Y_YF] | 1.14 | 1.19 | 1.45 | 0.647 | 1.29 | 0.701 | 0.428 | 0.381 | 0.38 | 0.435 | 0.359 | 3.35 | 0.416 | 0.39 | 0.8 | 0.456 |
| FLAVGYHKTHI [IDS_Y225_P228T] | 1.23 | 1.37 | 1.03 | 0.649 | 0.971 | 0.784 | 0.441 | 0.429 | 0.477 | 0.447 | 0.548 | 0.638 | 0.484 | 0.4 | 0.946 | 0.469 |
| FLGRDYLETLM [DUS3L_Y610_YF] | 0.878 | 0.96 | 0.563 | 0.686 | 0.748 | 0.849 | 0.471 | 0.48 | 0.422 | 0.591 | 0.47 | 0.685 | 0.459 | 0.428 | 0.957 | 0.401 |
| FPCSVYVPDEW [INSR_Y1011] | 0.858 | 1.35 | 1.13 | 0.769 | 1.11 | 1.5 | 0.476 | 0.623 | 0.714 | 0.72 | 0.707 | 1.08 | 0.606 | 1.8 | 1.3 | 0.675 |
| FPDFVYKRIKA [DPYSL2_Y479] | 0.79 | 0.622 | 0.41 | 0.543 | 0.793 | 0.682 | 0.377 | 0.495 | 0.494 | 0.424 | 0.421 | 0.362 | 0.468 | 0.344 | 0.773 | 0.443 |
| FQQLFYLLQTN [IQGAP2_Y890_YF] | 1.2 | 1.47 | 0.892 | 1.26 | 1.34 | 1.51 | 0.867 | 0.514 | 0.608 | 0.561 | 0.884 | 0.897 | 0.796 | 0.779 | 1.5 | 0.688 |
| FSGKAYADEEQ [CRIM1_Y826_R831Q] | 0.992 | 0.8 | 0.528 | 0.81 | 1.31 | 1.12 | 0.552 | 0.459 | 0.522 | 0.529 | 0.581 | 1.2 | 0.675 | 0.41 | 1.14 | 0.565 |
| FSIDHYLGKEM [G6PD_Y202_R198S_YF] | 0.831 | 0.953 | 0.643 | 0.749 | 1.16 | 1.06 | 0.421 | 0.579 | 0.545 | 0.511 | 0.669 | 0.845 | 0.61 | 0.464 | 1.2 | 0.537 |
| FTFDPYSEEEP [IL2RB_Y387_D391E_YF] | 1.04 | 0.971 | 0.654 | 0.811 | 0.917 | 1.22 | 0.469 | 0.602 | 0.59 | 0.549 | 0.874 | 0.733 | 0.576 | 0.907 | 1.49 | 0.584 |
| FVHDNYVIWRT [CPS1_Y1450_R1453W] | 1.11 | 0.847 | 0.827 | 1.8 | 1.11 | 1.28 | 1.45 | 2.79 | 0.577 | 1.26 | 6.57 | 1.14 | 7.37 | 0.721 | 1.16 | 1.26 |
| GAMGHYVLAER [HFE_Y342] | 1.18 | 0.91 | 2.46 | 0.446 | 0.511 | 0.643 | 0.452 | 0.38 | 0.41 | 0.453 | 0.387 | 0.505 | 0.403 | 0.437 | 0.659 | 0.44 |
| GCRSKYVGLWG [KCNQ1_Y184] | 1.01 | 1.05 | 0.779 | 0.506 | 0.605 | 0.61 | 0.463 | 0.432 | 0.38 | 0.408 | 0.41 | 0.511 | 0.456 | 0.452 | 0.708 | 0.363 |
| GDEEDYEEIPG [EGFR_opt_E_2015] | 0.993 | 0.624 | 0.779 | 0.823 | 1.36 | 1.36 | 0.498 | 0.62 | 0.596 | 0.645 | 0.893 | 0.898 | 0.59 | 0.598 | 1.38 | 0.527 |

Now from value to sequence, other results behind:

| SH2 binding enrichment (Grb2 SH2) | SH2 binding enrichment (SHP2-C SH2) | SH2 binding enrichment (c-Src SH2) | Sequence | phosphorylation enrichment (FGFR3) | phosphorylation enrichment (Jak2) | phosphorylation enrichment (AncSZ) | phosphorylation enrichment (MERTK) | phosphorylation enrichment (FGFR1) | phosphorylation enrichment (Fyn) | phosphorylation enrichment (Fer (mouse)) | phosphorylation enrichment (EPHB1) | phosphorylation enrichment (c-Abl (mouse)) | phosphorylation enrichment (EPHB2) | phosphorylation enrichment (c-Src) | phosphorylation enrichment (Fes) | phosphorylation enrichment (Hck) |
| --- | --- | --- | --- | --- | --- | --- | --- | --- | --- | --- | --- | --- | --- | --- | --- | --- |
| 0.962 | 0.543 | 0.542 | FEKNVYVDKNL [PTCHD3_Y688] | 0.461 | 0.732 | 0.615 | 0.411 | 0.419 | 0.405 | 0.437 | 0.36 | 0.616 | 0.406 | 0.446 | 0.894 | 0.505 |
| 1.15 | 1.74 | 1.25 | FFLGAYDRFLP [SLC22A5_Y486_V481F_YF] | 0.782 | 1.02 | 1.5 | 3.38 | 0.503 | 1.99 | 1.04 | 0.756 | 0.842 | 1.13 | 3.75 | 1.46 | 3.38 |
| 0.684 | 0.445 | 0.591 | FGSVMYEFVGK [SLC18A1_Y251] | 1.35 | 1.38 | 2.6 | 11.1 | 1.35 | 2.57 | 15.1 | 5.8 | 1.3 | 3.28 | 3.48 | 1.76 | 8.76 |
| 1.08 | 0.996 | 0.566 | FIGVTYKNKED [PDGFRA_Y993_E996K_YF] | 0.743 | 0.797 | 0.776 | 0.386 | 0.458 | 0.495 | 0.417 | 0.422 | 0.567 | 0.582 | 0.426 | 0.922 | 0.427 |
| 1 | 0.954 | 0.612 | FLNSIYKSRDE [ROS1_Y2227] | 0.507 | 0.612 | 0.566 | 0.357 | 0.439 | 0.444 | 0.342 | 0.365 | 0.499 | 0.517 | 0.481 | 0.642 | 0.519 |
| 1.73 | 1.86 | 1.61 | FQRITYHNWRH [PDE6B_Y556_R552Q_YF] | 0.634 | 0.791 | 0.55 | 0.41 | 0.447 | 0.466 | 0.452 | 0.449 | 0.487 | 0.511 | 0.417 | 0.762 | 0.478 |
| 1.01 | 0.726 | 0.543 | FRDMDYRSFPR [RBM10_Y41_YF] | 0.482 | 0.58 | 0.694 | 0.446 | 0.473 | 0.424 | 0.346 | 0.435 | 0.485 | 0.492 | 0.4 | 0.864 | 0.477 |
| 0.942 | 0.653 | 0.448 | FSCLPYRRLAY [SLC52A2_Y305_G306R] | 0.758 | 0.837 | 0.95 | 0.621 | 0.656 | 0.691 | 0.5 | 0.613 | 1.22 | 0.547 | 0.766 | 0.671 | 0.663 |
| 0.964 | 0.843 | 0.864 | FSQNIYIQNRN [PKP2_Y631_YF] | 0.473 | 0.517 | 0.619 | 0.383 | 0.54 | 0.447 | 0.418 | 0.396 | 0.459 | 0.425 | 0.45 | 0.62 | 0.589 |
| 0.957 | 0.829 | 0.535 | FSSLGYPPPEG [ZSWIM4_Y87_YF] | 0.704 | 0.807 | 0.752 | 0.401 | 0.437 | 0.443 | 0.396 | 0.418 | 0.593 | 0.481 | 0.421 | 0.906 | 0.472 |
| 0.793 | 0.567 | 0.476 | FTGDIYSSSNL [LZTR1_Y141_N143S_YF] | 0.588 | 0.588 | 0.748 | 1.7 | 0.494 | 5.8 | 2.31 | 0.782 | 2.35 | 1.03 | 4.35 | 0.652 | 5.66 |
| 0.756 | 0.605 | 0.384 | FVPAAYVKKLD [SPTAN1_Y1020] | 0.767 | 0.731 | 0.791 | 0.356 | 0.505 | 0.43 | 0.348 | 0.43 | 0.651 | 0.472 | 0.49 | 0.89 | 0.445 |
| 1 | 0.941 | 7.73 | FVTSMYNEILM [TRPV1_Y310] | 0.932 | 1.39 | 1.16 | 0.756 | 0.641 | 0.647 | 3.38 | 0.765 | 0.832 | 0.596 | 0.693 | 1.38 | 0.957 |
| 0.854 | 0.625 | 0.645 | GADDSYFTVRS [ZAP70_Y492_A495V_YF] | 2.62 | 1.73 | 1.59 | 0.468 | 3.54 | 0.604 | 0.484 | 0.558 | 0.665 | 0.498 | 0.846 | 1 | 0.968 |
| 0.763 | 0.561 | 0.469 | GDFFRYLAEVA [YWHAG_Y133_YF] | 0.664 | 0.964 | 1.07 | 0.429 | 0.683 | 0.432 | 0.486 | 0.503 | 0.78 | 0.51 | 0.447 | 1.18 | 0.477 |
